Data taken from IntAct's records for PubMed 22000520.

B1: FHA domain-containing protein FhaA (Mycobacterium tuberculosis (strain ATCC 25618 / P71590 (parent)
chain: MGSQKRLVQRVERKLEQTVGDAFARIFGGSIVPQEVEALLRREAADGIQSLQGNRLLAPNEYIITLGVHDFEKLGADPELKSTGFARDLADYIQEQGWQTYGDVVVRFEQSSNLHTGQFRARGTVNPDVETHPPVIDCARPQSNHAFGAEPGVAPMSDNSSYRGGQGQGRPDEYYDDRYARPQEDPRGGPDPQGGSDPRGGYPPETGGYPPQPGYPRPRHPDQGDYPEQIGYPDQGGYPEQRGYPEQRGYPDQRGYQDQGRGYPDQGQGGYPPPYEQRPPVSPGPAAGYGAPGYDQGYRQSGGYGPSPGGGQPGYGGYGEYGRGPARHEEGSYVPSGPPGPPEQRPAYPDQGGYDQGYQQGATTYGRQDYGGGADYTRYTESPRVPGYAPQGGGYAEPAGRDYDYGQSGAPDYGQPAPGGYSGYGQGGYGSAGTSVTLQLDDGSGRTYQLREGSNIIGRGQDAQFRLPDTGVSRRHLEIRWDGQVALLADLNSTNGTTVNNAPVQEWQLADGDVIRLGHSEIIVRMH
partner: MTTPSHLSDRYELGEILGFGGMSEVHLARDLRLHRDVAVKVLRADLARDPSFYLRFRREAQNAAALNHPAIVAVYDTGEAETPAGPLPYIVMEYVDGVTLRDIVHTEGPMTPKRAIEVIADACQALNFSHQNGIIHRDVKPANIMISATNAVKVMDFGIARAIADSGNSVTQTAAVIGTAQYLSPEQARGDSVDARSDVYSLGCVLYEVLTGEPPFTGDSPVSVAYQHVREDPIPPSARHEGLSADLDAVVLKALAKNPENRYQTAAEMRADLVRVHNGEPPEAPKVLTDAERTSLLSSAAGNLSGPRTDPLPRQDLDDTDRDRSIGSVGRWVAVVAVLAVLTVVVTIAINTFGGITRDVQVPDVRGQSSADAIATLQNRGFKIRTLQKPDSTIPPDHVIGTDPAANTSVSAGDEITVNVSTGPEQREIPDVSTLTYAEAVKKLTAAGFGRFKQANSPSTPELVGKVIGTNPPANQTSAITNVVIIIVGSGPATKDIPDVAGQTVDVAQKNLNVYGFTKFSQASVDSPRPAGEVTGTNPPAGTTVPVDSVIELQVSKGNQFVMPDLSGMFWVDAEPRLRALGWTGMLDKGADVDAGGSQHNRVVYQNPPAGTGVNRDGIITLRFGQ
B2: Serine/threonine-protein kinase PknB (Mycobacterium tuberculosis (strain ATCC 25618 / P9WI81 (parent)
chain: B1 partner
partner: B1 chain

Variants of: B1
Settings: with pknb_myctu pknB

Row | Variant | effect of a mutation on the interaction
1 | MGSQKRLVQRVERKLEQTVGDAFARIFGGSIVPQEVEALLRREAADGIQSLQGNRLLAPNEYIITLGVHDFEKLGADPELKSTGFARDLADYIQEQGWQTYGDVVVRFEQSSNLHAGQFRARGTVNPDVETHPPVIDCARPQSNHAFGAEPGVAPMSDNSSYRGGQGQGRPDEYYDDRYARPQEDPRGGPDPQGGSDPRGGYPPETGGYPPQPGYPRPRHPDQGDYPEQIGYPDQGGYPEQRGYPEQRGYPDQRGYQDQGRGYPDQGQGGYPPPYEQRPPVSPGPAAGYGAPGYDQGYRQSGGYGPSPGGGQPGYGGYGEYGRGPARHEEGSYVPSGPPGPPEQRPAYPDQGGYDQGYQQGATTYGRQDYGGGADYTRYTESPRVPGYAPQGGGYAEPAGRDYDYGQSGAPDYGQPAPGGYSGYGQGGYGSAGTSVTLQLDDGSGRTYQLREGSNIIGRGQDAQFRLPDTGVSRRHLEIRWDGQVALLADLNSTNGTTVNNAPVQEWQLADGDVIRLGHSEIIVRMH [T116A] | disrupting interaction

Variants of: B2
Settings: with fhaa_myctu fhaA

Row | Variant | effect of a mutation on the interaction
2 | T309A | increasing interaction
3 | T294A | increasing interaction
